molecular target: human growth hormone secretagogue receptor (human) (UniProt Q92847); experiment: (125I)ghrelin displacement, hGHS-R CHO-K1 membranes
Sequence (Q92847 whole entry): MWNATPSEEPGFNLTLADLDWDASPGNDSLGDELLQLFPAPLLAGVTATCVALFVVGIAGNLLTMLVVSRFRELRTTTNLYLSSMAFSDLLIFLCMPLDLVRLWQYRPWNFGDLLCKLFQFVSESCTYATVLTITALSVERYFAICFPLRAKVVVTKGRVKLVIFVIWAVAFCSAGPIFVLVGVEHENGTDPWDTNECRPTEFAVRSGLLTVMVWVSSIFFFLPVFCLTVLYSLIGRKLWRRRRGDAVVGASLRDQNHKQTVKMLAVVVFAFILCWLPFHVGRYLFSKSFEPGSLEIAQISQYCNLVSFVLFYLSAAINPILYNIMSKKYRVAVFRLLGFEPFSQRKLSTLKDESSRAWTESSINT

Row | Molecule | Ki
1 | H-Apc-D-Bal-D-Trp-2-Thi-Apc-NH2 (peptide) | 0.51 nM
2 | H-Inp-D-Bal-D-Trp-2-Thi-Apc-NH2 (peptide) | 0.4 nM
3 | H-Inp-D-Bal-D-Trp-Phe-Lys-NH2 (peptide) | 0.33 nM
4 | H-Apc-D-1-Nal-D-Trp-Phe-NH2 (peptide) | 0.7 nM
5 | H-Inp-D-Bal-D-Trp-Taz-Lys-NH2 (peptide) | 0.52 nM
6 | H-Apc-D-Bal-D-2-Nal-Phe-Lys-NH2 (peptide) | 0.68 nM
7 | Inp-D-2-Nal-D-Trp-Phe-Lys-NH2 (peptide) | 0.3 nM
8 | H-Apc-D-1-Nal-D-Trp-Taz-NH2 (peptide) | 1.41 nM
9 | H-Apc-D-Bal-D-Trp-Taz-Lys-NH2 (peptide) | 0.5 nM
10 | H-Apc-D-Bal-D-Trp-Phe-Apc-NH2 (peptide) | 0.71 nM
11 | H-Inp-D-Bal-D-Trp-Taz-Apc-NH2 (peptide) | 0.83 nM
12 | H-Inp-D-2-Nal-D-Trp(Ψ)-Pim (peptide) | 117 nM
13 | H-Inp-D-Bip-D-Trp-Phe-NH2 (peptide) | 20 nM
14 | H-Inp-D-2-Nal-D-Trp-Taz-Lys-NH2 (peptide) | 0.8 nM

molecular target: T1, human growth hormone secretagogue receptor (human, UniProt Q92847 1-366); experiment: as above
T1 construct: whole, on cells; also called hGHS-R; ghrelin receptor
T1 sequence (Q92847 whole entry): as above
Description: Membranes for radioligand binding studies can be and were prepared by homogenization of the foregoing CHO-KL cells expressing the human recombinant GHS receptor. The cells were homogenized in 20 ml of ice-cold 50 mM Tris-HCl using a Brinkman Polytron® (Westbury, N.Y.; setting 6, 15 sec). The homogenates were washed twice by centrifugation (39,000 g/10 min) and the final pellets were resuspended in 50 mM Tris-HCl containing 2.5 mM MgCh and 0.1% bovine serum albumin (BSA). […] The filters were then washed three times with 5-ml aliquots of ice-cold 50 mM Tris-HCl and 0.1% BSA, and the bound radioactivity trapped on the filters was counted by gamma spectrometry (Wallac LKB, Gaithersburg, Md.).

Row | Molecule | Ki
15 | GSXFLSPEHQRVQQRKESKKPPAKLQPR (Glu(O-hexyl) 3; C-terminal amide) [(Glu^3(O-hexyl))hGhrelin(1-28)-NH2] | 0.5 nM

— US20090304724A1 (IPSEN PHARMA S A S, published 2009)
